The results in this text go back to article PMC4381072, “Short antisense-locked nucleic acids (all-LNAs) correct alternative splicing abnormalities in myotonic dystrophy”.

The target in this data set is T1, MBNL1 (isoform encoded by exons 1-4) (UniProt Q9NR56 1-269).
T1 sequence: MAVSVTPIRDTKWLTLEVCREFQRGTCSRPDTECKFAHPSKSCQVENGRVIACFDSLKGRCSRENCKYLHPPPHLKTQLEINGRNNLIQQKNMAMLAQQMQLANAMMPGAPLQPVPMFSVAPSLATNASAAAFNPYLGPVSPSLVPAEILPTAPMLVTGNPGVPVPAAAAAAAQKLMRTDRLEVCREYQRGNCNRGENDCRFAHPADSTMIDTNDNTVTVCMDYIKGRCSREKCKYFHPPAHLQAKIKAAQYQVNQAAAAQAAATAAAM
The data set can be described thus: filter binding; 0-500 nM MBNL1; 0.5 nM oligomer; FBA: FBB (50 mM Tris-HCl pH 8.0, 1 mM MgCl2, 0.05% Tween 20) with 250 mM NaCl and 15 mM KCl, 37 C, 30 min, 30 ul. As to conditions: protein: recombinant; tags: N-terminal GST; C-terminal His6; label: radiolabeled; single strand.

As to CAGCAGCA (XNA, all LNA, phosphodiester) [PO-LNA-CAG-8], the binding result was “no binding”.

With CAGCAGCAGC (XNA, all LNA, phosphodiester) [PO-LNA-CAG-10], the binding result was “no binding”.
